The source of these data is patent US20180265890.

The data set deals with T1, PiggyBac transposase with c-myc NLS.
T1 sequence: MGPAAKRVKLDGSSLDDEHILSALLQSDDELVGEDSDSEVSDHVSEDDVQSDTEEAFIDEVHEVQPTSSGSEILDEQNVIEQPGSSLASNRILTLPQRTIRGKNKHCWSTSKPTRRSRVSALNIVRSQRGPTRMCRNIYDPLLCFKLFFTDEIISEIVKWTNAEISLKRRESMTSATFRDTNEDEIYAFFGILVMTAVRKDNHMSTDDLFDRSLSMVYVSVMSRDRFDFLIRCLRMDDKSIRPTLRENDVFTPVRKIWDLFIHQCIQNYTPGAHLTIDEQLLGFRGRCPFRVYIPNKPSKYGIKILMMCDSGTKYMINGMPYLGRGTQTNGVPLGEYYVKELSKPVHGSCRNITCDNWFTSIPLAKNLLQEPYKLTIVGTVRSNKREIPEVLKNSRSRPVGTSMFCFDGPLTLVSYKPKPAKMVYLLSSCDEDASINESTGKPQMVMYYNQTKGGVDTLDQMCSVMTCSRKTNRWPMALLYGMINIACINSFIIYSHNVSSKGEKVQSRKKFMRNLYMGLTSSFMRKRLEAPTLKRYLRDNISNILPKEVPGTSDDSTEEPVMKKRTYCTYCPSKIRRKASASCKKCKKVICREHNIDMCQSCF
Briefly: cell_activity. The conditions noted are these: pNB328-EGFP in Jurkat cells after 3 passages; both terminal repeats present together; K562 40.54%, primary T 56.9%, mouse ES 73.12%.

Regarding “GCATGCGTCAATTTTACGCAGACTATCTTTCTAGGGTTAA (double strand) [PiggyBac 3'-terminal repeat]”, the activity (% EGFP positive cells) is 36.4.

The sequence “TTAACCCTAGAAAGATAATCATATTGTGACGTACGTTAAAGATAATCATGCGTAAAATTGACGCATG (double strand) [PiggyBac 5'-terminal repeat]” came in with an activity (% EGFP positive cells) of 36.4.
